In patent publication US20140178353A1:

Target: Lon protease of E. coli (endogenous) (E. coli) (UniProt P0A9M0)
Assay: cell-based or functional assay

Chain of UniProt P0A9M0 (P0A9M0 2-784 limits assumed): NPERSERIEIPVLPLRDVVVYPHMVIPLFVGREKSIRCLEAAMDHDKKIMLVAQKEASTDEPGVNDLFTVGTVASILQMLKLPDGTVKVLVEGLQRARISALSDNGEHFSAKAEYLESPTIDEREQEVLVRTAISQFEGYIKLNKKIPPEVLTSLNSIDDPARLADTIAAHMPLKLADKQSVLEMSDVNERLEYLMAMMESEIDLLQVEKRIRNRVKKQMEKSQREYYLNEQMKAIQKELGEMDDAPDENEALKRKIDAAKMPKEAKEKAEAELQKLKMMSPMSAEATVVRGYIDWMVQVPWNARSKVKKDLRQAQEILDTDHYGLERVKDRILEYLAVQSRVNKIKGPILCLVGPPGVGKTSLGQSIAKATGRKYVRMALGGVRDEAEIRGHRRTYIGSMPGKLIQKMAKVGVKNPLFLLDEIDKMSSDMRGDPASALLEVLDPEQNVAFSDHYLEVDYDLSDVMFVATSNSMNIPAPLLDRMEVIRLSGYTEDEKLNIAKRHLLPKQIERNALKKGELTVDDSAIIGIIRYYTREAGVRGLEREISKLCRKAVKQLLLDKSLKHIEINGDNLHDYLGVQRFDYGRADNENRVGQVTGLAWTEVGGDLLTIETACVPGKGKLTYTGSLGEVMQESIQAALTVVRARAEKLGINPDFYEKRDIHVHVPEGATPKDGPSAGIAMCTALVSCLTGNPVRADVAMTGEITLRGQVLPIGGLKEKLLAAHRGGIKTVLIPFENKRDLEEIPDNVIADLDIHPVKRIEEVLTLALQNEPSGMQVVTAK

With “T7 phage gene product (Gp) 4.5 expressed in E. coli from a plasmid (peptide)” the fold decrease in persistence: fraction of surviving E. coli cells following 5 hr exposure to ampicillin was 5 fold.
